Earlier results in paper PMC9489792.

Experiments:
[1] = molecular target: Glu85 (UniProt position 98, WARYAEWLFTT); conditions: not stated (presumably the dark/ground state with protonated Schiff base)
[2] = molecular target: Asp85 (UniProt position 98, WARYADWLFTT); conditions: not stated (presumably the dark/ground state with protonated Schiff base)

**Q.** For “Bacteriorhodopsin D85E mutant (BR-D85E) (Halobacterium salinarum (organism inferred; the article only says BR / bacteriorhodopsin); D85E)”, which pKa [1] is on record?
**A.** Its pKa is 6.5.

**Q.** Which pKa [2] does the source give for “Bacteriorhodopsin (BR) (Halobacterium salinarum (organism inferred; the article only says BR / bacteriorhodopsin))” here?
**A.** Its pKa is 3.6.
